According to patent US20220226430A1 (TEXAS A AND M UNIVERSITY SYSTEM, published 2022):

B1: DARPin 1.2E (designed binder, not shown: small tags and cut ends)
chain: GSDLGKKLLEAARAGQDDEVRILMANGADVNAYDARGVTPLHLAAFSGHLEIVEVLLKNGADVNAIDVIGMTPLHLAAWIGHLEIVEVLLKHGADVNAVDRSGNTPLHLAAWLGHLEIVEVLLKYGADVNAQDKFGKTAFDISIDNGNEDLAEILQSSS
B2: DARPin 3.5B (designed binder, not shown: small tags and cut ends)
chain: GSDLGKKLLEAARAGQDDEVRILMANGADVNAKDTFGETPLHLAAWKGHLEIVEVLLKYGADVNASDLLGRTPLHLAAWRGHLEIVEVLLKNGADVNASDTGGYTPLHLAAALGHLEIVEVLLKHGADVNAQDKFGKTAFDISIDNGNEDLAEILQSSS
B3: DARPin 1.4E (designed binder, not shown: small tags and cut ends)
chain: GSDLGKKLLEAARAGQDDEVRILMANGADVNATDHLGVTPLHLAAVLGHLEIVEVLLKHGADVNAYDILGRTPLHLAAWRGHLEIVEVLLKYGADVNADDTSGTTPLHLAAGEGHLEIVEVLLKYGADVNAQDKFGKTAFDISIDNGNEDLAEILQSSS
B4: DARPin U3 (designed binder, not shown: small tags and cut ends)
chain: GSDLGKKLLEAARAGQDDEVRILMANGADVNADDRIGMTPLHLAAIGGHLEIVEVLLKNGADVNADDVHGRTPLHLAAGRGHLEIVEVLHGADVNAPDRWGRTPLHLAAHHGHLEIVEVLLKYGADVNAQDKFGKTAFDISIDSGNEDLAEILQSSS

Target: Clostridium difficile toxin B (TcdB) from C. difficile strain VPI 10463 (ribotype 087) (Clostridium difficile strain VPI 10463, UniProt P18177 2-2366)
Sequence (P18177 2-2366): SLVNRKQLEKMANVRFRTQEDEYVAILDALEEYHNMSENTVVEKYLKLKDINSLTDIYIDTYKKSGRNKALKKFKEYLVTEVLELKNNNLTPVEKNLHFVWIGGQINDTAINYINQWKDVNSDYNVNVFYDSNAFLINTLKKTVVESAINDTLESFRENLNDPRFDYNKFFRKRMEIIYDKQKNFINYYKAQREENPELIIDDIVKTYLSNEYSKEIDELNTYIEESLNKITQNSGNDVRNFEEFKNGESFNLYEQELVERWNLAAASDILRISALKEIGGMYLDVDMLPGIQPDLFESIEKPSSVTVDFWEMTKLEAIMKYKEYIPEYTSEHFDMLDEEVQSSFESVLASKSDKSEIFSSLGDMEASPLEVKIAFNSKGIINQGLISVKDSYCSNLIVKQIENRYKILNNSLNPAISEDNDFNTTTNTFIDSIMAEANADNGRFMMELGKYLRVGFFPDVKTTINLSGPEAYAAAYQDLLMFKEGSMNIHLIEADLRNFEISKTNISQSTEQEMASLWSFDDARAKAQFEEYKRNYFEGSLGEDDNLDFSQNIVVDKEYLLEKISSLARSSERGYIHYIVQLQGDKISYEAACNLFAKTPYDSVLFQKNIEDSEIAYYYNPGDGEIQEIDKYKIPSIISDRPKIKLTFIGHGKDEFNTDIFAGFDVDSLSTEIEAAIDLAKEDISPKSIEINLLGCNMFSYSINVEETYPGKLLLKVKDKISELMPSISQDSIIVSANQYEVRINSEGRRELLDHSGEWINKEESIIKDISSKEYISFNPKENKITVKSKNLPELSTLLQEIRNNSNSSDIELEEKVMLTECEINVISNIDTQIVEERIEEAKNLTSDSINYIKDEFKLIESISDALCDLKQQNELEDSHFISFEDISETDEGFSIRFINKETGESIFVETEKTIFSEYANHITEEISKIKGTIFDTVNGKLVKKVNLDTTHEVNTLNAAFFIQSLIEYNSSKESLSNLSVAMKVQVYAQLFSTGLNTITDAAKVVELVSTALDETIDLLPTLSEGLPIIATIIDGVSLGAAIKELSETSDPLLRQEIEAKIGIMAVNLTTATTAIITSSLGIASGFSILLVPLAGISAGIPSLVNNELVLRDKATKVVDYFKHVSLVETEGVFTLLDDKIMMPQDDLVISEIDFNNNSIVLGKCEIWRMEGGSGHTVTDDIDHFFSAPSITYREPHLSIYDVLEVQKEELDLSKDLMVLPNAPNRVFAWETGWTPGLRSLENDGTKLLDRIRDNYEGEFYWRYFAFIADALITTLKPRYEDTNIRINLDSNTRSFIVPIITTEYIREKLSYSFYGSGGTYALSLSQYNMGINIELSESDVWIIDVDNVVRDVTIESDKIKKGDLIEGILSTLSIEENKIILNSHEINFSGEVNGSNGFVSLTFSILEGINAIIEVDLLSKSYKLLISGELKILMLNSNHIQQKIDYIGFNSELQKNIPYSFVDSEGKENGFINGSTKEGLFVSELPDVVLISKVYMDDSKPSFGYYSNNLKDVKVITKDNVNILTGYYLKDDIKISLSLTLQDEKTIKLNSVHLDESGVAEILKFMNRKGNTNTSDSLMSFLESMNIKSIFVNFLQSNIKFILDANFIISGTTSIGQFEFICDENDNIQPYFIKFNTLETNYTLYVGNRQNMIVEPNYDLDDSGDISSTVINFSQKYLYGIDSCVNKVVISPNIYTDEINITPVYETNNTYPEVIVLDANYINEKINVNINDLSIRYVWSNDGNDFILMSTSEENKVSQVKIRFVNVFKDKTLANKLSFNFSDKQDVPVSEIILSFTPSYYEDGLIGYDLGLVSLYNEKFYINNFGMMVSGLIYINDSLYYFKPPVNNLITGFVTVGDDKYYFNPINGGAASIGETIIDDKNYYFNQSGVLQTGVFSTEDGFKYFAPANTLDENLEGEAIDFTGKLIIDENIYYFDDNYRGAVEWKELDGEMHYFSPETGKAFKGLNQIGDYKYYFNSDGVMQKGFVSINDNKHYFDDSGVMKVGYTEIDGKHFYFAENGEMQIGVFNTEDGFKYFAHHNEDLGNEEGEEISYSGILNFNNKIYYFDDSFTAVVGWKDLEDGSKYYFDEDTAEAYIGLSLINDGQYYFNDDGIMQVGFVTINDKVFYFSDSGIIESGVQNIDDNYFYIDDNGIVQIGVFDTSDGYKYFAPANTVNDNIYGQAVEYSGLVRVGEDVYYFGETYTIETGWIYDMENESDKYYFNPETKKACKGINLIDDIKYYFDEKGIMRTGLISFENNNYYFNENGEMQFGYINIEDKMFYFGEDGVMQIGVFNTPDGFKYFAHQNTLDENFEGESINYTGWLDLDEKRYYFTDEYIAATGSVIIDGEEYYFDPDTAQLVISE
Assay: cell-based or functional assay

Binder | EC50 of TcdB neutralization (Vero cells, CellTiterGlo) [nM] | further results
B1 | 2.4 | –
B2 | – | toxin-neutralization EC50: 13.3 nM
B3 | 3 | –
B4 | – | toxin-neutralization EC50 (Vero cells): > 25 nM
